The values below are quoted from earlier work in PMC8463877.

Data set [1] has as its target Aβ42 fibrils Aβ1-42 (Homo sapiens) (UniProt P05067).
For data set [2], the target named is apoC-II fibrils (Homo sapiens) (UniProt P02655).
apoC-II fibrils (Homo sapiens), sequence (P02655 23-101): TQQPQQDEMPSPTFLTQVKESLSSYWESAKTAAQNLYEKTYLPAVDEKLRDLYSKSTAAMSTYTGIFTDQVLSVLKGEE

αB-crystallin, sequence (P02511 whole entry): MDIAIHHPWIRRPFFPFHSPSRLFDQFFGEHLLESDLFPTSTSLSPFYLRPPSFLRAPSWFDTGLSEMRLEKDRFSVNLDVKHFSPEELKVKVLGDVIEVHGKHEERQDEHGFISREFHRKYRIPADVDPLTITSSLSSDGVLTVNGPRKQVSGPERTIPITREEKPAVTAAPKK
Aβ42 fibrils Aβ1-42 (Homo sapiens), sequence (P05067 1-42): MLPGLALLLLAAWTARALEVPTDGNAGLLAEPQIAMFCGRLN

What is called Kd is the constant that tells how readily two partners part at equilibrium. For the substance αB-crystallin (from UniProt P02511), the figures for the Kd in data set [1] and in data set [2] were 2.1 µM and 5.4 µM, respectively.
